Results as given in patent publication US20210301011A1, “COMPOSITION FOR PROPHYLAXIS OR TREATMENT OF IL-8 RELATED DISEASES” (CHUGAI SEIYAKU KABUSHIKI KAISHA, priority 2016, published 2021).

What was measured:
Assay type in all cases: in vivo, cynomolgus monkeys
[1] = tested on: endometriosis lesions
From the text: Female cynomolgus monkeys of 8 to 14 years of age with regular sexual cycle (provided by the Tsukuba Primate Research Center at the National Institutes of Biomedical Innovation, Health and Nutrition) were laparotomized under anesthesia during the period corresponding to the luteal phase. The uterine corpus was removed by dissecting in a V shape. Then, the uterine corpus was cut into 5 to 10 mm cubes while leaving the smooth muscle layer of the uterus, and one and two pieces were transplanted onto the right abdominal wall and left abdominal wall (cranial and caudal sides), respectively, in such a manner that the endometrium part is in contact with the peritoneum by suturing with an absorbable suture and formed the transplant. After excision, the uterus was sutured with absorbable suture. Then, the remaining endometrial tissues were finely cut and suspended in 5 ml of 2 ng/ml Hepatocyte Growth Factor solution (R&D systems), and this was seeded in the peritoneal cavity for transplantation, followed by closure of the abdomen. Anesthesia was performed using balanced anesthesia of ketamine/xylazine (mixed at an adequate ratio of about 2:1); however, anesthesia was maintained with isoflurane depending on the maintenance period of anesthesia. The body temperature was maintained and controlled during surgery using a heating pad and the condition was monitored electrocardiographically. The antagonist Antisedan (at roughly the same amount as that of xylazine) and antibiotic cephradine were administered at the time of awakening after surgery. The pain reliever Zalban was administered for two days after surgery, and the monkeys were observed regularly every day to confirm the absence of post-surgical abnormalities. In laparoscopic observation, anesthesia and post-surgical monitoring were also performed in the same way.
Laparoscopic observation was carried out four months, nine months (3 months after administration), and 12 months (6 months after administration) following the surgical induction of endometriosis described above, and the pathological conditions of endometriosis were assessed as follows.
The abdomen was incised in the median line under anesthesia, and laparoscopic observation was performed by inserting a trocar and then introducing a laparoscope. The laparoscope was connected to a video system (KARL STORZ) and a monitor. The monitor was used for intraperitoneal observation, and the video system was used for recording. Then, the peritoneal cavity was filled with carbon dioxide gas using Intra-abdominal Insufflation Unit (OLYMPUS) to expand the abdomen, and graduated bars and forceps were inserted from the ventral portion. The size of the lesion was measured using the graduated bar or graduated forceps.
The sizes (width, height, and depth) of nodular lesions formed by suturing the endometrial tissues were measured and the volumes were calculated based on: width (mm)×height (mm)×depth (mm). The lesions and adhesion formed by seeding endometrial tissues after fine cutting were assessed for the site, area, and depth of adhesion and the size of lesion by laparoscopic observation based on modified r-AFS score modified for monkeys from the r-AFS score for clinical use.
1. The item on adhesion to the vesicouterine pouch was added, because in the monkey model, the frequency of adhesion to the urinary bladder is higher than in humans. The method for assessing adhesion to the urinary bladder was the same scoring as that used for adhesion to the Douglas' pouch. 2. Since monkey's body and organ sizes are smaller than those of humans, the criteria of lesion size scoring were altered to: <3 mm, 3-10 mm, and >10 mm
The grouping was performed in two separate times. After randomization based on the mean volume of nodular lesions and the number of measurable lesions in each individual, eventually, six individuals were assigned to vehicle group and seven individuals were assigned to the antibody H1009/L395-F1974m-administered group. […]

[2] = tested on: post-surgical adhesion; experiment: Adhesion after surgery (area surrounding the incision site in the abdominal wall) in endometriosis monkey models; conditions: 10 mg/kg; before vs six months after initiation of administration
Description: Specifically, adhesion to the area surrounding the incision site on the abdominal wall was compared before and after administration and evaluated by five evaluators on a three-point scale: (1) Improved, (2) Stable, and (3) Progressed. Ratings with a consensus among three or more of the five evaluators were adopted; otherwise (2) Stable was used. Evaluations were carried out on six monkeys in the vehicle group as well as seven monkeys in the antibody […]/[…]-[…] administration group. […] The monkey with “Progressed” was an individual in which the blood concentration of antibody […]/[…]-[…] had decreased due to anti-antibody production.

[3] = tested on: post-surgical adhesion; experiment: Post-surgical adhesion-induced monkey model; design: key: ∘: Adhesion found; x: No adhesion; conditions: 10 mg/kg i.v. one hour or less after surgery; laparoscopy 24 to 35 days after; per animal
Description: To prepare a post-surgical adhesion-induced model, female cynomolgus monkeys 9 to 16 years of age (provided by the Tsukuba Primate Research Center at the National Institutes of Biomedical Innovation, Health and Nutrition) were treated under anesthesia as follows. Anesthesia was performed using balanced anesthesia of ketamine/xylazine (mixed at an adequate ratio of about 2:1) and isoflurane. An incision of 5 to 6 cm was made in the median line of the abdominal wall. After opening the abdomen, a 1-cm incision was made on the uterine corpus and sutured with 4 stitches using a single suture. Then, the whole uterus was brushed five times with gauze. Next, a 1-cm incision was made to the right abdominal wall peritoneal part at 2 cm from the incised median line of the abdominal wall and sutured by running suture with 4 stitches using an absorbable suture. After suture, the sutured part was brushed five times with gauze. Likewise, the peritoneum of left abdominal wall was incised, sutured, and brushed with gauze. Finally, the median line of abdominal wall was sutured by running suture with 10 to 11 stitches. The entire steps were completed in one hour or less. The antagonist Antisedan (in roughly the same amount as that of xylazine) and the antibiotic cephradine were administered at the time of awakening after surgery. Then, the pain reliever Zalban was administered for two days after surgery, and the monkeys were observed regularly every day to confirm the absence of post-surgical abnormalities. At laparoscopic observation, anesthesia and post-surgical monitoring were also performed in the same way.
The control group was untreated. 24 to 35 days after administration of the anti-IL-8 antibody, laparoscopy was performed to observe the adhesion formed due to incision, suture, and blushing with gauze. The abdomen was incised in the median line under anesthesia, and laparoscopic observation was performed by inserting a trocar and then introducing a laparoscope. The laparoscope was connected to a video system (KARL STORZ) and a monitor. The video system was used for recording, and the monitor was used for intraperitoneal observation. The size of the adhesion was measured using a graduated bar or graduated forceps. The presence, range, and location of adhesion were assessed during laparoscopic observation. […] Although adhesion was found in individual No. 206 in the anti-IL-8 antibody administration group, no adhesion was found in the right and left abdominal wall peritoneum or at the uterine incision site in individual No. 201. […] Those skilled in the art will naturally appreciate that anti-IL-8 antibodies may exert a stronger adhesion formation-preventive effect by appropriately altering the timing of administration or such. […]

B1: H1009/L395-F1974m: H1009-F1974m (SEQ ID NO:36) heavy chain, L395-kOMT light chain; the anti-IL-8 antibody of Table 29 (antibody)
heavy: QVQLVESGGGLVQPGGSLRLSCAASGFTFSDYYLSWVRQAPGKGLEWVGLIRNKDNYHTPEYSASVKGRFTISRDDSKNSLYLTMSDLKTEDTAVYYCARENHRYDVELAYWGQGTLVTVSSASTKGPSVFPLAPSSKSTSGGTAALGCLVKDYFPEPVTVSWNSGALTSGVHTFPAVLQSSGLYSLSSVVTVPSSSLGTQTYICNVNHKPSNTKVDKKVEPKSCDKTHTCPPCPAPELRRGPSVFLFPPKPKDTLMISRTPEVTCVVVDVSHEDPEVKFNWYVDGVEVHNAKTKPREEQYNSTYRVVSVLTVLHQDWLNGKEYKCKVSNKGLPSSIEKTISKAKGQPREPQVYTLPPSREEMTKNQVSLTCLVKGFYPSDIAVEWESNGQPENNYKTTPPVLDSDGSFFLYSKLTVDKSRWQQGNVFSCSVLHEALHAHTTRKELSLSP
light: DIQMTQSPSSLSASVGDRVTITCRASEIIYSYLAWYQQKPGKAPKLLIYKAKTHADGVPSRFSGSGSGTDFTFTISSLQPEDIATYYCKHHFGFPRTFGQGTKVEIKRTVAAPSVFIFPPSDEQLKSGTASVVCLLNNFYPREAKVQWKVDNALQSGNSQESVTEQDSKDSTYSLSSTLTLSKADYEKHKVYACEVTHQGLSSPVTKSFNRGEC
frequency of nodular lesions of type A: proliferative, ≥500 mm3 ([1]; 10 mg/kg i.v. q4w, 6 months): 0%
frequency of nodular lesions of type B: proliferative, <500 mm^3 ([1]; 10 mg/kg i.v. q4w, 6 months): 8%
frequency of nodular lesions of type C: no change ([1]; 10 mg/kg i.v. q4w, 6 months): 33%
frequency of nodular lesions of type D: decreased ([1]; 10 mg/kg i.v. q4w, 6 months): 58%
nodular lesions of type A: proliferative, ≥500 mm3 (lesions/total lesions) ([1]; 10 mg/kg i.v. q4w, 6 months): (0/12)
nodular lesions of type B: proliferative, <500 mm^3 (lesions/total lesions) ([1]; 10 mg/kg i.v. q4w, 6 months): (1/12)
nodular lesions of type C: no change (lesions/total lesions) ([1]; 10 mg/kg i.v. q4w, 6 months): (4/12)
nodular lesions of type D: decreased (lesions/total lesions) ([1]; 10 mg/kg i.v. q4w, 6 months): (7/12)
change of size r-AFS score ([1]; after vs before administration, compared to vehicle group): tended to decrease
change of total r-AFS score ([1]; after vs before administration, compared to vehicle group, p=0.0070): clearly decreased as compared to the vehicle group
change of adhesion score (adhesion r-AFS score) ([1]; after vs before administration, compared to vehicle group, p=0.0096): clearly decreased as compared to the vehicle group
frequency of deep lesions (endometriosis gland ducts invaded up to the muscle layer of abdominal wall) ([1]; anti-antibody-positive individuals excluded, vehicle 5/18 lesions): 1/11
hemosiderin observed (lesions/total) ([1]; antibody administration group, vehicle 9/16): 4/17
hemosiderin observed (percent of lesions) ([1]; antibody administration group, vehicle 56%): 24%
total modified r-AFS score before and after administration ([1]; scores recorded by the practitioner during laparoscopic surgery, P=0.875): the score did not change
post-surgical adhesion: Improved (monkeys/total) [2]: 6/7
post-surgical adhesion: Progressed (monkeys/total) [2]: 1/7
post-surgical adhesion: Stable (monkeys/total) [2]: 0/7
adhesion at incision site: Abdominal wall, Median line [3]: ∘
adhesion at incision site: Abdominal wall, Peritoneum (L) [3]: ∘ and x
adhesion at incision site: Abdominal wall, Peritoneum (R) [3]: ∘ and x
adhesion at incision site: Uterus [3]: ∘ and x
